# Where no end group is shown, it is not given here. [ ]: non-standard residue; d: D form. Aib = CC(C)(N)C(=O)O
# B1: [His14,Tyr20,Glu23,Val25,Glu34,Lys35,Aib36,Lys37]-GLP-1-(7-37)-peptidyl-Glu-Phe-Leu amide (peptide)
# peptide: HAEGTFTHDVSSYYEGEAVKEFIAWLVEK[Aib]KEFL-NH2
# modifications: N-terminus assumed
# SMILES: CC[C@H](C)[C@H](NC(=O)[C@H](Cc1ccccc1)NC(=O)[C@H](CCC(=O)O)NC(=O)[C@H](CCCCN)NC(=O)[C@@H](NC(=O)[C@H](C)NC(=O)[C@H](CCC(=O)O)NC(=O)CNC(=O)[C@H](CCC(=O)O)NC(=O)[C@H](Cc1ccc(O)cc1)NC(=O)[C@H](Cc1ccc(O)cc1)NC(=O)[C@H](CO)NC(=O)[C@H](CO)NC(=O)[C@@H](NC(=O)[C@H](CC(=O)O)NC(=O)[C@H](Cc1c[nH]cn1)NC(=O)[C@@H](NC(=O)[C@H](Cc1ccccc1)NC(=O)[C@@H](NC(=O)CNC(=O)[C@H](CCC(=O)O)NC(=O)[C@H](C)NC(=O)[C@@H](N)Cc1c[nH]cn1)[C@@H](C)O)[C@@H](C)O)C(C)C)C(C)C)C(=O)N[C@@H](C)C(=O)N[C@@H](Cc1c[nH]c2ccccc12)C(=O)N[C@@H](CC(C)C)C(=O)N[C@H](C(=O)N[C@@H](CCC(=O)O)C(=O)N[C@@H](CCCCN)C(=O)NC(C)(C)C(=O)N[C@@H](CCCCN)C(=O)N[C@@H](CCC(=O)O)C(=O)N[C@@H](Cc1ccccc1)C(=O)N[C@@H](CC(C)C)C(N)=O)C(C)C
# B2: [Aib2,Gly16,Lys29,Aib30,Leu31,Glu32,Phe33,Leu34,Glu35,Leu36,Leu37]-Exendin-4-(1-37)-peptide amide (peptide)
# peptide: H[Aib]EGTFTSDLSKQMEGEAVRLFIEWLKNK[Aib]LEFLELL-NH2
# modifications: N-terminus assumed
# SMILES: CC[C@H](C)[C@H](NC(=O)[C@H](Cc1ccccc1)NC(=O)[C@H](CC(C)C)NC(=O)[C@H](CCCNC(=N)N)NC(=O)[C@@H](NC(=O)[C@H](C)NC(=O)[C@H](CCC(=O)O)NC(=O)CNC(=O)[C@H](CCC(=O)O)NC(=O)[C@H](CCSC)NC(=O)[C@H](CCC(N)=O)NC(=O)[C@H](CCCCN)NC(=O)[C@H](CO)NC(=O)[C@H](CC(C)C)NC(=O)[C@H](CC(=O)O)NC(=O)[C@H](CO)NC(=O)[C@@H](NC(=O)[C@H](Cc1ccccc1)NC(=O)[C@@H](NC(=O)CNC(=O)[C@H](CCC(=O)O)NC(=O)C(C)(C)NC(=O)[C@@H](N)Cc1c[nH]cn1)[C@@H](C)O)[C@@H](C)O)C(C)C)C(=O)N[C@@H](CCC(=O)O)C(=O)N[C@@H](Cc1c[nH]c2ccccc12)C(=O)N[C@@H](CC(C)C)C(=O)N[C@@H](CCCCN)C(=O)N[C@@H](CC(N)=O)C(=O)N[C@@H](CCCCN)C(=O)NC(C)(C)C(=O)N[C@@H](CC(C)C)C(=O)N[C@@H](CCC(=O)O)C(=O)N[C@@H](Cc1ccccc1)C(=O)N[C@@H](CC(C)C)C(=O)N[C@@H](CCC(=O)O)C(=O)N[C@@H](CC(C)C)C(=O)N[C@@H](CC(C)C)C(N)=O
# B3: [Aib8,Glu23,Val25,His31,Glu34,Lys35,Aib36,Lys37]-GLP-1-(7-37)-peptidyl-Glu-Phe-Leu amide (peptide)
# peptide: H[Aib]EGTFTSDVSSYLEGEAVKEFIAHLVEK[Aib]KEFL-NH2
# modifications: N-terminus assumed
# SMILES: CC[C@H](C)[C@H](NC(=O)[C@H](Cc1ccccc1)NC(=O)[C@H](CCC(=O)O)NC(=O)[C@H](CCCCN)NC(=O)[C@@H](NC(=O)[C@H](C)NC(=O)[C@H](CCC(=O)O)NC(=O)CNC(=O)[C@H](CCC(=O)O)NC(=O)[C@H](CC(C)C)NC(=O)[C@H](Cc1ccc(O)cc1)NC(=O)[C@H](CO)NC(=O)[C@H](CO)NC(=O)[C@@H](NC(=O)[C@H](CC(=O)O)NC(=O)[C@H](CO)NC(=O)[C@@H](NC(=O)[C@H](Cc1ccccc1)NC(=O)[C@@H](NC(=O)CNC(=O)[C@H](CCC(=O)O)NC(=O)C(C)(C)NC(=O)[C@@H](N)Cc1c[nH]cn1)[C@@H](C)O)[C@@H](C)O)C(C)C)C(C)C)C(=O)N[C@@H](C)C(=O)N[C@@H](Cc1c[nH]cn1)C(=O)N[C@@H](CC(C)C)C(=O)N[C@H](C(=O)N[C@@H](CCC(=O)O)C(=O)N[C@@H](CCCCN)C(=O)NC(C)(C)C(=O)N[C@@H](CCCCN)C(=O)N[C@@H](CCC(=O)O)C(=O)N[C@@H](Cc1ccccc1)C(=O)N[C@@H](CC(C)C)C(N)=O)C(C)C
# B4: [Aib8,Asp23,Val25,Asp27,Glu34,Lys35,Aib36,Lys37]-GLP-1-(7-37)-peptidyl-Glu-Phe-Leu amide (peptide)
# peptide: H[Aib]EGTFTSDVSSYLEGDAVKDFIAWLVEK[Aib]KEFL-NH2
# modifications: N-terminus assumed
# SMILES: CC[C@H](C)[C@H](NC(=O)[C@H](Cc1ccccc1)NC(=O)[C@H](CC(=O)O)NC(=O)[C@H](CCCCN)NC(=O)[C@@H](NC(=O)[C@H](C)NC(=O)[C@H](CC(=O)O)NC(=O)CNC(=O)[C@H](CCC(=O)O)NC(=O)[C@H](CC(C)C)NC(=O)[C@H](Cc1ccc(O)cc1)NC(=O)[C@H](CO)NC(=O)[C@H](CO)NC(=O)[C@@H](NC(=O)[C@H](CC(=O)O)NC(=O)[C@H](CO)NC(=O)[C@@H](NC(=O)[C@H](Cc1ccccc1)NC(=O)[C@@H](NC(=O)CNC(=O)[C@H](CCC(=O)O)NC(=O)C(C)(C)NC(=O)[C@@H](N)Cc1c[nH]cn1)[C@@H](C)O)[C@@H](C)O)C(C)C)C(C)C)C(=O)N[C@@H](C)C(=O)N[C@@H](Cc1c[nH]c2ccccc12)C(=O)N[C@@H](CC(C)C)C(=O)N[C@H](C(=O)N[C@@H](CCC(=O)O)C(=O)N[C@@H](CCCCN)C(=O)NC(C)(C)C(=O)N[C@@H](CCCCN)C(=O)N[C@@H](CCC(=O)O)C(=O)N[C@@H](Cc1ccccc1)C(=O)N[C@@H](CC(C)C)C(N)=O)C(C)C
# B5: [Aib8,Glu23,Val25,Glu34,Lys35,Leu36,Lys37]-GLP-1-(7-37)-peptidyl-Glu-Leu-Val amide (peptide)
# peptide: H[Aib]EGTFTSDVSSYLEGEAVKEFIAWLVEKLKELV-NH2
# modifications: N-terminus assumed
# SMILES: CC[C@H](C)[C@H](NC(=O)[C@H](Cc1ccccc1)NC(=O)[C@H](CCC(=O)O)NC(=O)[C@H](CCCCN)NC(=O)[C@@H](NC(=O)[C@H](C)NC(=O)[C@H](CCC(=O)O)NC(=O)CNC(=O)[C@H](CCC(=O)O)NC(=O)[C@H](CC(C)C)NC(=O)[C@H](Cc1ccc(O)cc1)NC(=O)[C@H](CO)NC(=O)[C@H](CO)NC(=O)[C@@H](NC(=O)[C@H](CC(=O)O)NC(=O)[C@H](CO)NC(=O)[C@@H](NC(=O)[C@H](Cc1ccccc1)NC(=O)[C@@H](NC(=O)CNC(=O)[C@H](CCC(=O)O)NC(=O)C(C)(C)NC(=O)[C@@H](N)Cc1c[nH]cn1)[C@@H](C)O)[C@@H](C)O)C(C)C)C(C)C)C(=O)N[C@@H](C)C(=O)N[C@@H](Cc1c[nH]c2ccccc12)C(=O)N[C@@H](CC(C)C)C(=O)N[C@H](C(=O)N[C@@H](CCC(=O)O)C(=O)N[C@@H](CCCCN)C(=O)N[C@@H](CC(C)C)C(=O)N[C@@H](CCCCN)C(=O)N[C@@H](CCC(=O)O)C(=O)N[C@@H](CC(C)C)C(=O)N[C@H](C(N)=O)C(C)C)C(C)C
# B6: [Glu23,Val25,Arg26,His34,Arg35,Val36,Arg37]-GLP-1-(7-37)-peptidyl-Glu-Phe-Leu-Glu-Lys (peptide)
# peptide: HAEGTFTSDVSSYLEGEAVREFIAWLVHRVREFLEK
# B7: [Asn14,Met16,Thr17,Asn18,Glu23,Val25,Glu34,Lys35,Gly36,Lys37]-GLP-1-(7-37)-peptidyl-Glu-Phe-Leu amide (peptide)
# peptide: HAEGTFTNDMTNYLEGEAVKEFIAWLVEKGKEFL-NH2
# B8: [Glu34,Lys35,Val36,His37]-GLP-1-(7-37)-peptidyl-Glu-Phe-Leu amide (peptide)
# peptide: HAEGTFTSDVSSYLEGQAAKEFIAWLVEKVHEFL-NH2
# B9: [Tyr12,Asn14,Thr17,Glu18,Glu23,Val25,Glu34,Lys35,Aib36,Lys37]-GLP-1-(7-37)-peptidyl-Glu-Phe-Leu amide (peptide)
# peptide: HAEGTYTNDVTEYLEGEAVKEFIAWLVEK[Aib]KEFL-NH2
# modifications: N-terminus assumed
# SMILES: CC[C@H](C)[C@H](NC(=O)[C@H](Cc1ccccc1)NC(=O)[C@H](CCC(=O)O)NC(=O)[C@H](CCCCN)NC(=O)[C@@H](NC(=O)[C@H](C)NC(=O)[C@H](CCC(=O)O)NC(=O)CNC(=O)[C@H](CCC(=O)O)NC(=O)[C@H](CC(C)C)NC(=O)[C@H](Cc1ccc(O)cc1)NC(=O)[C@H](CCC(=O)O)NC(=O)[C@@H](NC(=O)[C@@H](NC(=O)[C@H](CC(=O)O)NC(=O)[C@H](CC(N)=O)NC(=O)[C@@H](NC(=O)[C@H](Cc1ccc(O)cc1)NC(=O)[C@@H](NC(=O)CNC(=O)[C@H](CCC(=O)O)NC(=O)[C@H](C)NC(=O)[C@@H](N)Cc1c[nH]cn1)[C@@H](C)O)[C@@H](C)O)C(C)C)[C@@H](C)O)C(C)C)C(=O)N[C@@H](C)C(=O)N[C@@H](Cc1c[nH]c2ccccc12)C(=O)N[C@@H](CC(C)C)C(=O)N[C@H](C(=O)N[C@@H](CCC(=O)O)C(=O)N[C@@H](CCCCN)C(=O)NC(C)(C)C(=O)N[C@@H](CCCCN)C(=O)N[C@@H](CCC(=O)O)C(=O)N[C@@H](Cc1ccccc1)C(=O)N[C@@H](CC(C)C)C(N)=O)C(C)C
# B10: [Glu34,His35,Val36,Lys37]-GLP-1-(7-37)-peptidyl-Glu-Phe-Leu amide (peptide)
# peptide: HAEGTFTSDVSSYLEGQAAKEFIAWLVEHVKEFL-NH2
# B11: [Asp9,Leu12,Ile16,Glu23,Val25,Glu34,Lys35,Aib36,Lys37]-GLP-1-(7-37)-peptidyl-Glu-Phe-Leu amide (peptide)
# peptide: HADGTLTSDISSYLEGEAVKEFIAWLVEK[Aib]KEFL-NH2
# B12: [Aib8,Trp23,Val25,Glu34,Lys35,Aib36,Lys37]-GLP-1-(7-37)-peptidyl-Glu-Phe-Leu amide (peptide)
# peptide: H[Aib]EGTFTSDVSSYLEGWAVKEFIAWLVEK[Aib]KEFL-NH2
# modifications: N-terminus assumed
# SMILES: CC[C@H](C)[C@H](NC(=O)[C@H](Cc1ccccc1)NC(=O)[C@H](CCC(=O)O)NC(=O)[C@H](CCCCN)NC(=O)[C@@H](NC(=O)[C@H](C)NC(=O)[C@H](Cc1c[nH]c2ccccc12)NC(=O)CNC(=O)[C@H](CCC(=O)O)NC(=O)[C@H](CC(C)C)NC(=O)[C@H](Cc1ccc(O)cc1)NC(=O)[C@H](CO)NC(=O)[C@H](CO)NC(=O)[C@@H](NC(=O)[C@H](CC(=O)O)NC(=O)[C@H](CO)NC(=O)[C@@H](NC(=O)[C@H](Cc1ccccc1)NC(=O)[C@@H](NC(=O)CNC(=O)[C@H](CCC(=O)O)NC(=O)C(C)(C)NC(=O)[C@@H](N)Cc1c[nH]cn1)[C@@H](C)O)[C@@H](C)O)C(C)C)C(C)C)C(=O)N[C@@H](C)C(=O)N[C@@H](Cc1c[nH]c2ccccc12)C(=O)N[C@@H](CC(C)C)C(=O)N[C@H](C(=O)N[C@@H](CCC(=O)O)C(=O)N[C@@H](CCCCN)C(=O)NC(C)(C)C(=O)N[C@@H](CCCCN)C(=O)N[C@@H](CCC(=O)O)C(=O)N[C@@H](Cc1ccccc1)C(=O)N[C@@H](CC(C)C)C(N)=O)C(C)C
# Biological target: human GLP-1 receptor (human, UniProt P43220)
# Assay: cell-based or functional assay
Binder,"CRE luciferase EC50, 0% HSA","CRE luciferase EC50, 1% HSA"
B1,0.338 nM,0.101 nM
B2,1.51 nM,0.552 nM
B3,0.066 nM,0.02 nM
B4,4.88 nM,0.776 nM
B5,0.155 nM,0.082 nM
B6,0.039 nM,0.014 nM
B7,0.079 nM,0.028 nM
B8,0.107 nM,0.03 nM
B9,0.202 nM,0.104 nM
B10,0.103 nM,0.024 nM
B11,0.222 nM,0.062 nM
B12,0.763 nM,0.296 nM
